The text below walks through data of article PMC9680708.

Common to all, as to assay: other fluorescence titration
Assay [1] has as its target FlAsH-labeled wild-type collybistin (CB) FRET sensor F1DA (rat).
The target in assay [2] is FlAsH-labeled collybistin FRET sensor F73DA (rat).
Assay [3] deals with FlAsH-labeled single-mutant (E262A) open-state collybistin FRET sensor F1smDA (rat).
Assay [4] concerns the target FlAsH-labeled collybistin FRET sensor F28DA (rat).
The target of assay [5] is FlAsH-labeled collybistin FRET sensor F99DA (rat).
Assay [6] deals with FlAsH-labeled double-mutant (W24A/E262A) open-state collybistin FRET sensor F1dmDA (rat).

Broadly, the Kd is the equilibrium constant for the complex coming apart. Lower therefore signals tighter binding. In assay [1], “free SH3 domain of collybistin (domain or fragment)” had a Kd of 373 µM and a species-weighted average fluorescence lifetime of CFP in the sensor with ligand of 1.44 ns.

In assay [1], “isolated gephyrin E domain (GephE) (domain or fragment)” gave a Kd of 6.3 µM and a species-weighted average fluorescence lifetime of CFP in the sensor with ligand of 1.36 ns.

For the substance “full-length gephyrin (GephFL) (from UniProt Q03555 1-768) (natural protein)”, the species-weighted average fluorescence lifetime of CFP in the sensor with ligand was found to be 1.03 ns in assay [2]; 1.56 ns in assay [1]; 0.62 ns in assay [3]; 1.4 ns in assay [4]; 1.2 ns in assay [5]; 0.64 ns in assay [6]. The values for the Kd in assay [1], in assay [3] and in assay [6] were 4.5 µM, 47 µM and 43 µM, respectively.

In the case of “gephyrin linker followed by the E domain (GephLE) (domain or fragment)”, in assay [1], the Kd was determined as 6.4 µM and the species-weighted average fluorescence lifetime of CFP in the sensor with ligand was 1.54 ns.

As for “intracellular cytosolic domain of neuroligin 2 (NL2icd) (from UniProt Q62888 700-836) (domain or fragment)”, the species-weighted average fluorescence lifetime of CFP in the sensor with ligand in assay [1] amounted to 1.37 ns.
